Target: T1, hRad51 (human, UniProt Q06609 1-339)
T1 sequence (looked up): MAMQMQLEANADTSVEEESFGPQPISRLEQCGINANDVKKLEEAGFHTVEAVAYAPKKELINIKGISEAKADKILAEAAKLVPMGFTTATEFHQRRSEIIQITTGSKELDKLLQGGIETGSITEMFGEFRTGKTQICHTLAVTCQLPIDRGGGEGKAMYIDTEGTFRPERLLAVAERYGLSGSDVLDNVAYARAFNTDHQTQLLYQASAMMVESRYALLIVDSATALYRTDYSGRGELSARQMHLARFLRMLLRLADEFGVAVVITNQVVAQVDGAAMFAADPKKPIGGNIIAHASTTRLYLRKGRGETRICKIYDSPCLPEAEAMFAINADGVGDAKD
Experiment: pull-down

B1: GST-BRC3/4 (domain or fragment, human, UniProt P51587 1409-1596, looked up)
chain: LTATKTEQNIKDFETSDTFFQTASGKNISVAKESFNKIVNFFDQKPEELHNFSLNSELHSDIRKNKMDILSYEETDIVKHKILKESVPVGTGNQLVTFQGQPERDEKIKEPTLLGFHTASGKKVKIAKESLDKVKNLFDEKEQGTSEITSFSHQWAKTLKYREACKDLELACETIEITAAPKCKEMQN
B1: binds.
